The assay addresses human EphA2 ligand-binding domain (LBD) (human) (UniProt P29317). The assay can be described thus: SPR.

As a reminder, the Kd is the free concentration of one partner at which half of the binding sites on the other are occupied at equilibrium, for simple one-to-one binding. Low readings indicate higher affinity, high ones lower affinity.

Sequence of EBV gHgL (Epstein-Barr virus glycoprotein H / glycoprotein L complex) (P03231 18-679): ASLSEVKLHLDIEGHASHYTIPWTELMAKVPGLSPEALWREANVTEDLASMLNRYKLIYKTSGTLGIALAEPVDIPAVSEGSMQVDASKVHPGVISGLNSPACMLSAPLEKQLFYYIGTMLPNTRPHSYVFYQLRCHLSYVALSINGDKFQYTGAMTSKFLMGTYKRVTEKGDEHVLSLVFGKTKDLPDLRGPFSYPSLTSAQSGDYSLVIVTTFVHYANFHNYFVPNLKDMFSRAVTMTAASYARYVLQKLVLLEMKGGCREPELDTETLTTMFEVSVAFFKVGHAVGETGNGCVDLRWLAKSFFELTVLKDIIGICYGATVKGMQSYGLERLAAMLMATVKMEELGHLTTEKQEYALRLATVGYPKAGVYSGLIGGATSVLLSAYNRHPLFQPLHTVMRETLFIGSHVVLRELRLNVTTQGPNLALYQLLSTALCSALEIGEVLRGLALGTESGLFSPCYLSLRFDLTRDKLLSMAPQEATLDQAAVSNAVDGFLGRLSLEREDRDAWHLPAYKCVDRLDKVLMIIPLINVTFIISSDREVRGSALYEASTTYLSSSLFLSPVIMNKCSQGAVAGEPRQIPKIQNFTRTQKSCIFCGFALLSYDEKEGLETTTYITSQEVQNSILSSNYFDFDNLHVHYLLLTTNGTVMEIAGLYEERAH
Sequence of EBV gHgL (Epstein-Barr virus glycoprotein H / glycoprotein L complex) (P03212 24-137): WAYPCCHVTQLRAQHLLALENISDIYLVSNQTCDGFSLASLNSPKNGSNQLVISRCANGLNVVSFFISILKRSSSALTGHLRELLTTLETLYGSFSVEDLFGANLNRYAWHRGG
Sequence of KSHV gHgL (Kaposi sarcoma-associated herpesvirus glycoprotein H / glycoprotein L complex) (F5HAK9 22-698): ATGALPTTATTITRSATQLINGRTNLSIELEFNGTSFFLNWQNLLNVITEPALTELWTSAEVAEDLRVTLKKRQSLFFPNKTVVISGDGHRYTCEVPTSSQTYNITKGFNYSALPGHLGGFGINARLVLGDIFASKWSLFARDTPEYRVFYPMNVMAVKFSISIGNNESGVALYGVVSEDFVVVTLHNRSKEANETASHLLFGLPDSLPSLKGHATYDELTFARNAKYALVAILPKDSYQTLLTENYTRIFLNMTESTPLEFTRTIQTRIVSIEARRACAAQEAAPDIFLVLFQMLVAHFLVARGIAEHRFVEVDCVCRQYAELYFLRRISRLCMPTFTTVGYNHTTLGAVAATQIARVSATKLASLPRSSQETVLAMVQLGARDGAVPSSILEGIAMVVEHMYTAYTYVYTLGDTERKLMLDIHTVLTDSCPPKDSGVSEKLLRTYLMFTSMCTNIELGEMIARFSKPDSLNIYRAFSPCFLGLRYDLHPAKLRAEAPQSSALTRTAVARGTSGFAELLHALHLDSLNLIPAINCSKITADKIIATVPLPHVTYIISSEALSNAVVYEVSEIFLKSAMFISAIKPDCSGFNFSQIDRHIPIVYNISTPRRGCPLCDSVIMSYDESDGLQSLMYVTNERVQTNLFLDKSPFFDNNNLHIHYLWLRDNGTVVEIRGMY
Sequence of KSHV gHgL (Kaposi sarcoma-associated herpesvirus glycoprotein H / glycoprotein L complex) (F5HDB7 21-167): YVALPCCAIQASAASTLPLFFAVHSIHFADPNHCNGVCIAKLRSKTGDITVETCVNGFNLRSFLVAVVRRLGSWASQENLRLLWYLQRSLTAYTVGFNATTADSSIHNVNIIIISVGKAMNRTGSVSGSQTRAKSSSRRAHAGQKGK

For “EBV gHgL (Epstein-Barr virus glycoprotein H / glycoprotein L complex) (from UniProt P03231;P03212)”, the Kd worked out at 4120 nM.

The substance “KSHV gHgL (Kaposi sarcoma-associated herpesvirus glycoprotein H / glycoprotein L complex) (from UniProt F5HAK9;F5HDB7)” displayed an equilibrium dissociation constant (Kd) of 17.5 nM.
